{"source": "the DeepSol protein solubility set", "data": [{"assay": "soluble on expression in E. coli; label from the status in PepcDB or PDB records", "values": [{"sequence": "MKTVDSELFDSGPFKKNFAFGNADHSTASPFEISTTPIEVNESRAHKTIEISNRARLESQNDGCLSPSSLKSVLDEIQTEPRCKSPQHIDLHTFRDAVDVNYQRMAITGEELSGVPLEDLKTASGHLIEALHLRSKYMERIGNQFPSTTRNFLSGHYPANLPKHRVKNTETTVQTSFNPPDPPKDHWGKNDPLPKYEKIYHLRRNRGVTEICNDDGSIDQQFKNVNVTKEEFLNDTEKLTAMIVDGPLKSFCFRRLSYLENKFQLHVLLNELRELHEQKGVSHRDFYNIRKVDTHIHAASSMNQKHLLRFIKKKIKTEADTVVLNNNGTKVTMKEVFKKMGIDAYDLSVDMLDVHADRNTFHRFDKFNTKYNPVGESTLREIFIKTDNYVGGKYFADLLKEVLSDLEDSKYQHAEPRLSIYGRSKNEWDNLAKWALTHDVWSPNARWLVQIPRLYDVYRAKNMVKNFDDMLDNLFTPLFEVTNDPSSHPELHLFLQQISGIDSVDDESKHEFVNFDRSTPCPPEYTDLENPPYNYYLFYMYRNICALNAFRRARGLNTFALRPHCGEAGHVSHLLTGYLTSESIAHGILLRKVPVLQYLYYLTQIGIAMSPLSNNSLFISYQRNPLPEYLQKGLNVSLSTDDPLQFHYTKEALMEEFSIAAQVWKLSSCDMCELARNSVMQSGFEDKVKIHWLGPNYKEEGVLGNDIHRTNVPDIRVSFRHEALVDELYNLFRVQNTLKQ", "soluble on expression in E. coli": "not soluble"}, {"sequence": "MSLNMKVLITASSRGIGFNLAKELLNKGHEVTITSSNIRNIENAYKELRELGTVHYFQADLSSKEDIKRMVKDAWDAMGRIEALIWNAPNVKCEPCMVHEARYRDWLEAALLHLVSPGYITTLLIQAWLEKKIKGVLIYLSSASVLEPMPPLLLADTARAGLVQLTKGITRAYGGKGIRAYVVLLGSFDTPGARENLAKIAEERGMSLEEIWRKEVIERTPLKRTGKWSELGALIDFLLSENAEYMMGSTILFDGAMTRGVNEGHHHHHH", "soluble on expression in E. coli": "not soluble"}, {"sequence": "MGSDKIHHHHHHMENESKLVEVDEKHLQFRVAREAFVSEQILSGEYEKIFDRCWLYVGHVSEFSKPGDFVTRTIARRNLLVTMGTDNRINAFFNTCPHRGATVCRDRAGNSKNFQCFYHGWVFGCDGNLKSQPGKDRYCADFIASGAGNLVSVPRFDIYAGFCFVSFNAEVEPLPDYLAGAKEYLDLVSRYSESGMAISSGTQEYAIRANWKLLVENSVDGYHAVSTHATYLDYLKNTNGSLSSTKLEGTSYDLGNGHAVLEYTAPWGRPIASWVPLWGEQGKKEIDQIYARLVELHGEDMADRMAHKNRNLLIFPNLVVNDIMAITVRTFYPQAPNYMLVNGWSLAPREESEWAKKFRLSNFLEFLGPGGFATPDDVEALESCQNGFSNYRLVPWSDISKGMGKASPNYDDELQMRAFWTRWNQYISGSPSPQATIRRLPSATAA", "soluble on expression in E. coli": "not soluble"}, {"sequence": "MCLAIPSVVIDIFEEDGEKYALAEYKGVKQKAKLALIEGVEIGDYVLIHTGYALEKMSEDEAKLSLDAWEELFDVLDEMDGVKKENSE", "soluble on expression in E. coli": "not soluble"}, {"sequence": "ALQAGRLGSTVFVANLDYKVGWKKLKEVFSMAGVVVRADILEDKDGKSRGIGTVTFEQSIEAVQAISMFNGQLLFDRPMHVKMDERALPKGDFFPPERPQQ", "soluble on expression in E. coli": "soluble"}, {"sequence": "MGSDKIHHHHHHMFQWKKLGKVFTPQDINNRPWLKEFAQAPATLVFDDFVRVYFSCRPPVDEHGMYVSYSAWVDLDRNNLFNVLRVSEKPILPLGQSGEFDEFGTYPVSVVRDENIFRAYYAGWTRCESVPFNVAIGMAISDDGDVFRKAGPGPIISYSPEEPFVMSGPKIRRFNGEWQLFYIAGRRWKLVDGRAEPVYKIRMAVSSDGTNWRKINKDLISSRIEEDEAQASPDVFYANGRYHMFFCYRYSEHYRGKKHGYRIGYAWSSDLIDWHRDDEKVGIDVSETGWDSEMISYPHVFELDGKVYMAYLGDQVGRYGFGLAQLEGELR", "soluble on expression in E. coli": "not soluble"}, {"sequence": "LQELETAVAETGFSRFPVTGKDGSYLGYVHIKDVLDRFDHSSPDTIIHRSEIRPLIIVDAAGTMDEALQSMHSKSAHMAQVRDRGLLLGVITLEDLIEEYVGTFSDWTHEQS", "soluble on expression in E. coli": "not soluble"}, {"sequence": "MTDFQKQFFARLNIEEKQKVSFEDLSNIMYAMAQTVPFENLNVLEKNFKEISQENLKEKILVNNRGGLCYELNPTMYYFLKDAGFDVYLVSGTVYNAANSIWAVDSGHIATILKHHNELYLIEVGFGSYLPLAPVPFSGEVVQSVTGDYRIRKEMTEKGNYMLEMRKNDEFLDQSSTDDWTLGYAFYIEEVDEKKQMQHKKLLLNTMAHHLTKYLLL", "soluble on expression in E. coli": "not soluble"}, {"sequence": "MAHHHHHHMGCTASKTKTPAANVASKGADEFYALATTERHPVAEKLLEEWVLFVDAQARRNAGDSSAARAYETRLKEVWADTTNRPVTHRSVDYVGKMFLEYIKEDLSHRGWGGNFDYKVAGVVTQGFLKANANIDTALSDTPEEVTWEIKIHYDSLGVS", "soluble on expression in E. coli": "soluble"}, {"sequence": "MGSDKIHHHHHHMDDFDTPVTGNAYGNNTIKEQRTISIANLKEKYSSVISANQFQTVTEETRISGVVVGDDESGNIYKQLIVADETGAIVVGINSTGIYANCPVGQKVVIDCENLNVGGYGMQAQIGTTYKGAIGRMDLAVWLDHVRVINKPQLWYDELIPMELTGAQLKAYDKDLAPVLVMFKDVTIKEADGTATFAPEDLKDGGNGVNRTLVLDDNSTLTFRTSTYANFSTEVMPTGKINVIGILSRYNSTWQIVARTYSDIQRNN", "soluble on expression in E. coli": "not soluble"}, {"sequence": "MVTPSLRLVFVKGPREGDALDYKPGSTIRVGRIVRGNEIAIKDAGISTKHLRIESDSGNWVIQDLGSSNGTLLNSNALDPETSVNLGDGDVIKLGEYTSILVNFV", "soluble on expression in E. coli": "soluble"}, {"sequence": "MELDGKAPSHRNLNVQTWSTAEGAKVLFVEARELPMFDLRLIFAAGSSQDGNAPGVALLTNAMLNEGVAGKDVGAIAQGFEGLGADFGNGAYKDMAVASLRSLSAVDKREPALKLFAEVVGKPTFPADSLARIKNQMLAGFEYQKQNPGKLASLELMKRLYGTHPYAHASDGDAKSIPPITLAQLKAFHAKAYAAGNVVIALVGDLSRSDAEAIAAQVSAALPKGPALAKIEQPAEPKASIGHIEFPSSQTSLMLAQLGIDRDDPDYAAVSLGNQILGGGGFGTRLMSEVREKRGLTYGVYSGFTPMQARGPFMINLQTRAEMSEGTLKLVQDVFAEYLKNGPTQKELDDAKRELAGSFPLSTASNADIVGQLGAMGFYNLPLSYLEDFMRQSQELTVEQVKAAMNKHLNVDKMVIVSAGPTVAQKPLEHHHHHH", "soluble on expression in E. coli": "soluble"}, {"sequence": "MGSDKIHHHHHHMKFKQDYFDQLSGFYSQVTPQGLPRPQWLAWSEDAAALIGLKQPDDELLQGLAGNQAIPGASYYAQVYSGHQFGGYSPQLGDGRSIILGEAEGPQGYWDVALKGAGMTPYSRHGDGRAVMRSAVREFLVSEALHHLNIPTTRALAVIGSDLPVWRETQETAAITVRLAKSHIRFGHFEFFCHSEQGSKDKLKQLLDFTLSQHYPELSRDQAGYIAWFNRVVADTAKLIAHWQAVGFAHGVMNTDNMSILGDSFDFGPFAFLDTFEEDFICNHSDPNGRYAFGQQPGVGLWNLQRLAQALVPIIASDDLIAALNTYQHHLVQAYLVLMRDKLGIKLVEPAGSERDEADLQLIGGFTLLMEANRLDHTNTWRRFAQLDPNSQHSSLRDDFIDLAGFDTWYQAYQERLGQVSDVAGWQAVRAQVNPKYVLRNYLAQEAIIACEEGNTQPLAELHQLLTRPFDEQPEKEAYAKRPPEWGQGLIMSCSS", "soluble on expression in E. coli": "not soluble"}, {"sequence": "MFLSVVTVAFRNYEGVVKTWRSLRNLARDPGLSFEWIVVDGGSEDGTREFLQKRHGEFNLRFISEKDRGIYDAMNKGIALAQGRYTLFLNSGDAFHDDAALFVRQLARQKGEAMYIGDALLDFGGGHKIRRKAKPGYYIYHSLPASHQAIFFPTAALKKYPYDLQYHVSSDYALAARLYKAGYPFRRINGLVSEFSMGGVSTSNNLELCQDAKNVQRKILRVPGFWAQLSYLLRLKTTGKTKARYNKVLEHHHHHH", "soluble on expression in E. coli": "not soluble"}, {"sequence": "MGSDKIHHHHHHMIQGKKFISPGTWFSMIYPSDWSEFEDGEGSFLFYNPEHWTGNFRISAYKEDAAAPGGMNYGKDSVRQELKENPSASLVKVGHLECAYSKEMFEEEGIYYTSHLWVTGIDNVAFECSFTVPKGEHVDEAEKIISSLEIRKDGQKYPAEIIPIRLSEIYQVNEAYEWVTDTVKTQLKKDFQGLEEDLQKIQDVIDSGVLSPKKKEPWLAFGIAICTILANEVEGMEWMTLVDGNREVPVLRYEGSEQLIDPMKLLWSRVRAGETCEVAEAYKQALIH", "soluble on expression in E. coli": "not soluble"}, {"sequence": "AHHHHHHGSGLISDADKKVIKEEFFSKMVNPVKLIVFVRKDHCQYCDQLKQLVQELSELTDKLSYEIVDFDTPEGKELAKRYRIDRAPATTITQDGKDFGVRYFGLPAGHEFAAFLEDIVDVSREETNLMDETKQAIRNIDQDVRILVFVTPTCPYCPLAVRMAHKFAIENTKAGKGKILGDMVEAIEYPEWADQYNVMAVPKIVIQVNGEDRVEFEGAYPEKMFLEKLLSALS", "soluble on expression in E. coli": "soluble"}, {"sequence": "MKRLTERVIIMKGAGEMATGVACRLHRSGFRRILMLEAPSPLAVRRGVSFCEAIHNGRKSVEGIEAVRIENGSALADAWGKGEIPLLADPQGDAVRRMEPDILIDATIAKRNLGIAITDAPLVIALGPGFFAGRDCHLVIETNRGHNLGRLIACGEAEPNTGIPGNIGGYTRERVLRAPADGHFTTEKVIGDQVSKGDVVGIVGTNTVTASIDGILRGLIRPGTHVTTGLKIGDIDPRGDTAYCHTISEKARALGGSVLEAILTVYNQLEHHHHHH", "soluble on expression in E. coli": "not soluble"}, {"sequence": "RPRGPRAVFILPVTAQGEAVLIRQFRYPLRATITEIVAGGVEKGEDLGAAAARELLEEVGGAASEWVPLPGFYPQPSISGVVFYPLLALGVTLGAAQLEDTETIERVVLPLAEVYRMLEAGEIQDGPSSLTLWQARGELTRRGLL", "soluble on expression in E. coli": "soluble"}, {"sequence": "MGSDKIHHHHHHMTDTAPAANIATLSELLKLSGSQYRLYDIGRLVSELPKEQFEKVELNQLPYPTPTQGCACIAIAFWQKQSSQPYLWLLKLPLDERGLLNQGARNHFIAIIVEALGADLTQETSKKQEELLSSNPYLFTPAQYKLASLNSKIKVDLKQQPSAYFSPFREYLSHGSDWGNWQGVGVQGITDFIARIKHDNHSELLLNALPHLPDEVLSPVCSALENEQYPVVLIDALVSALENALIIPDNSVKTMQLLRSLAANSDHTHVRKVVGQLLSNQEVSSELLITLSGRCWQALADEKMLMCYFEHLLSNNNLPLFSSIFKDLVTIPLIRPVAFQCIRSEDRSPALAQAIGQLLSQT", "soluble on expression in E. coli": "not soluble"}, {"sequence": "MHGKDPFSDFREFINTMESRVQELGKAYGVEHLAGPQGFAVRYLFENQDKEIFIKDIEKKLSISKSVASNLVKRMEKNGFVELVTSDKDKRYKYVHLTDLGKKKAQDVGHFREAIHGQLLDGISKEDAETAFRVFHQIRKNLEKNKE", "soluble on expression in E. coli": "not soluble"}, {"sequence": "MGSDKIHHHHHHVLQLESIGVMDNYNKDLTPDQASAFLEVVDASLRIKKKAQLFSWLQGHFQFLLPHEVLLCGFAVGVGRNFSLETFSSTRYVTDAQVAIAMHERTGVVMKAIQAWRQTSQPVLIDPYLKDGNFGRFTVPKIDQVNLQESELRNIAAYGLSSADGSISSFFSFSRISGELNASHAYMLELLVPYLHSVLMRVSDGVFNFGDAMGEGVNAGIITPREKEILQWVHTGKSNWEIATILEISPLTVKNHMQNILRKLDVQNRSHAAAKAYRLGLIRH", "soluble on expression in E. coli": "not soluble"}]}]}
